Test results from paper PMC12847774, “SERPINB3 enhances NPM1 sumoylation via inhibiting SENP3’s activity and promotes lung tumorigenesis” (Cell Death & Disease, 2025).

Biological target: T1, SENP3 purified protein (UniProt Q9H4L4 1-574)
T1 construct: SENP3; cloned into pET-28a(+) between BamHI and HindIII; also called wild-type SENP3; pET-28a (+)-SENP3; source: E. coli Rosetta (DE3), purified (Ni-NTA)
Assay: co-IP; in vitro immunoprecipitation with Flag antibody using purified recombinant proteins
Conditions: both partners purified

T1 sequence (Q9H4L4 whole entry): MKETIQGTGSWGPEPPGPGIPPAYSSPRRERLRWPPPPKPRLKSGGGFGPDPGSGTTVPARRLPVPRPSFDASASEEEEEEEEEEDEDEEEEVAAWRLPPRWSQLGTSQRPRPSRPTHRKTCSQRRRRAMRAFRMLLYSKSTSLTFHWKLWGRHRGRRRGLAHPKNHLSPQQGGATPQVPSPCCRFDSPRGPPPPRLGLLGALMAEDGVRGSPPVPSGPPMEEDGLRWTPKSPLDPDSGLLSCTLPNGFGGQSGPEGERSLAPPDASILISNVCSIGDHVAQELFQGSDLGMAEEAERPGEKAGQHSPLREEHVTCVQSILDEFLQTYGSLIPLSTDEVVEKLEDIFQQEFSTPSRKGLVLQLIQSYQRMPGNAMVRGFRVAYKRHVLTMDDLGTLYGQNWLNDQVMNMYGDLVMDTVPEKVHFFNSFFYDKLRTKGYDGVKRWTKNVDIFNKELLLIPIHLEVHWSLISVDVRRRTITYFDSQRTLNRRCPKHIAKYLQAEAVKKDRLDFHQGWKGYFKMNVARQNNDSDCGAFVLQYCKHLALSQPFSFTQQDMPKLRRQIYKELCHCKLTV

binding result: binds
B1: Flag-SERPINB3 purified protein (natural protein, UniProt P29508 1-390, looked up)
chain: MNSLSEANTKFMFDLFQQFRKSKENNIFYSPISITSALGMVLLGAKDNTAQQIKKVLHFDQVTENTTGKAATYHVDRSGNVHHQFQKLLTEFNKSTDAYELKIANKLFGEKTYLFLQEYLDAIKKFYQTSVESVDFANAPEESRKKINSWVESQTNEKIKNLIPEGNIGSNTTLVLVNAIYFKGQWEKKFNKEDTKEEKFWPNKNTYKSIQMMRQYTSFHFASLEDVQAKVLEIPYKGKDLSMIVLLPNEIDGLQKLEEKLTAEKLMEWTSLQNMRETRVDLHLPRFKVEESYDLKDTLRTMGMVDIFNGDADLSGMTGSRGLVLSGVLHKAFVEVTEEGAEAAAATAVVGFGSSPTSTNEEFHCNHPFLFFIRQNKTNSILFYGRFSSP
notes: SERPINB3; cloned into pET-28a(+) between BamHI and HindIII; the methods name only pET-28a (+)-SERPINB3; also called SCCA1; pET-28a (+)-SERPINB3; source: E. coli BL21(DE3), purified (Ni-NTA)
